Experimental findings from patent publication US20050282752A1 are described below.

The term EC50 denotes the midpoint of the concentration-response curve. A higher EC50 goes with a less potent agent.

Assay [1] has as its target biotinylated human IL-1RI (human) (UniProt P14778). The assay can be described thus: IGEN (ECL) competition, inhibition of IL-1 signaling complex formation. To be noted: ligand.
For assay [2] the target is unchanged. As to the kind of experiment: IGEN (ECL) competition, inhibition of IL-1 signaling complex formation; concentrated stock. To be noted: ligand.

Chain of biotinylated human IL-1RI (human) (P14778 18-336): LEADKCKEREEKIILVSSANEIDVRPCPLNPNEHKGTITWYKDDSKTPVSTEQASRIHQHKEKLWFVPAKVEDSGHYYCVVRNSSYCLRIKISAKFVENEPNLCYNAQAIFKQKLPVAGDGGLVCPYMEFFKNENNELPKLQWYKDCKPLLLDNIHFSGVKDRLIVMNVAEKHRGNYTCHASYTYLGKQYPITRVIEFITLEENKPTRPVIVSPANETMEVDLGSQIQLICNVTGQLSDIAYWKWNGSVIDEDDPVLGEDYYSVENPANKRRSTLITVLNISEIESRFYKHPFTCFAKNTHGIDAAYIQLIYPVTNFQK

With “IL-1ra K93A mutant protein (from UniProt P18510 26-177)”, the EC50 turned out to be 0.562 nM in assay [1] and 0.873 nM in assay [2].
